Results reported in patent publication US20050171014A1 (GOVERNMENT OF THE UNITED STATES OF AMERICA REPRESENTED BY …, published 2005).
Non-standard residues stand in square brackets, D forms with d. HTI‑286 = hemiasterlin derivative, cytotoxic agent; Cha = N[C@@H](CC1CCCCC1)C(=O)O; Nle = CCCC[C@H](N)C(=O)O

How the values were obtained:
[1] = target: low-affinity gastrin receptor of nontransfected cells; experiment: cell-based or functional assay
gastrin receptor = target: T1, gastrin receptor; experiment: cell-based or functional assay
T1 sequence (P32239 whole entry, species assumed, looked up): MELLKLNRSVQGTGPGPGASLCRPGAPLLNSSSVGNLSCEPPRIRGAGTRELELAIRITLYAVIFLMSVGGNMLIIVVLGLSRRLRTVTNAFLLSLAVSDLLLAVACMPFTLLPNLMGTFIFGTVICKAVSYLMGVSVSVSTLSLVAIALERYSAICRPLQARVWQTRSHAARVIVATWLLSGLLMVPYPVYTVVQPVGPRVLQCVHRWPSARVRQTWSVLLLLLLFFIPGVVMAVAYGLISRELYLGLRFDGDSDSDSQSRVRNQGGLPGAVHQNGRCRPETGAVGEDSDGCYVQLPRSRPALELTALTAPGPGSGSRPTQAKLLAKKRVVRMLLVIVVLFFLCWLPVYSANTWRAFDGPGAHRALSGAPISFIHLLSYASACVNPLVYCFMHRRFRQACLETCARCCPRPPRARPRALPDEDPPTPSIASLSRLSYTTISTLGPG

IC50, growth inhibition of nontransfected cells (MTT or sulforhodamine assay) [1]: 0.3 µM | IC50, growth inhibition of gastrin receptor-expressing 3T3 cells (MTT or sulforhodamine assay) (gastrin receptor): 0.01 µM
Binder: {HTI‑286}-[Cha]LALAEEEAYGW[Nle]DF-NH2 [HTI-286-Cha-Leu-Ala-Leu-Ala-EEEAYGW-Nle-DF-NH2]
